Molecular target: grass pollen allergic patients' IgE antibodies
Assay: ELISA competition; sera of 20 patients preadsorbed with 10 ug/ml rPhl p 6; competitor: plate-bound rPhl p 6

B1: recombinant Phl p 6 (protein, timothy grass, UniProt P43215 23-132, looked up)
chain: GKATTEEQKLIEDVNASFRAAMATTANVPPADKYKTFEAAFTVSSKRNLADAVSKAPQLVPKLDEVYNAAYNAADHAAPEDKYEAFVLHFSEALRIIAGTPEVHAVKPGA
% inhibition of IgE binding: 80%

Source: US20020173625A1
